Measured values reported in article PMC12416549 (2024).
Positions count from the first letter of the chain named. Names and notes keep the numbering of the source.

B1: H78T (designed binder)
chain: MTLQELLREEALRRAEAEAFRYALELLAEKFPEQKEYLLDLAEEIESQIRSLSGVDVEDVRKFLDKEWAWVKELLAETPAELAEVEAARAARLAELRAEVEAKVAA
B2: M1G (designed binder)
chain: B1 chain with M1G, T78H
B3: Q48V (designed binder)
chain: B1 chain with Q48V, T78H
B4: L7I (designed binder)
chain: B1 chain with L7I, T78H
B5: R21T (designed binder)
chain: B1 chain with R21T, T78H
B6: A88I (designed binder)
chain: B1 chain with T78H, A88I
B7: V100Y (designed binder)
chain: B1 chain with T78H, V100Y
B8: E46R (designed binder)
chain: B1 chain with E46R, T78H
B9: L26C (designed binder)
chain: B1 chain with L26C, T78H
B10: E73F (designed binder)
chain: B1 chain with E73F, T78H
B11: A91Y (designed binder)
chain: B1 chain with T78H, A91Y
B12: E84C (designed binder)
chain: B1 chain with T78H, E84C
B13: L27F (designed binder)
chain: B1 chain with L27F, T78H
B14: Q48C (designed binder)
chain: B1 chain with Q48C, T78H
B15: E25C (designed binder)
chain: B1 chain with E25C, T78H
B16: E10F (designed binder)
chain: B1 chain with E10F, T78H
B17: E33T (designed binder)
chain: B1 chain with E33T, T78H
B18: E16Q (designed binder)
chain: B1 chain with E16Q, T78H
B19: K30N (designed binder)
chain: B1 chain with K30N, T78H
B20: S53F (designed binder)
chain: B1 chain with S53F, T78H
B21: I49N (designed binder)
chain: B1 chain with I49N, T78H
B22: K62I (designed binder)
chain: B1 chain with K62I, T78H
B23: Y37E (designed binder)
chain: B1 chain with Y37E, T78H
B24: R97Q (designed binder)
chain: B1 chain with T78H, R97Q
B25: A80P (designed binder)
chain: B1 chain with T78H, A80P
B26: K72G (designed binder)
chain: B1 chain with K72G, T78H
B27: A98S (designed binder)
chain: B1 chain with T78H, A98S
B28: M1Y (designed binder)
chain: B1 chain with M1Y, T78H
B29: L38V (designed binder)
chain: B1 chain with L38V, T78H
B30: E36W (designed binder)
chain: B1 chain with E36W, T78H
B31: L38I (designed binder)
chain: B1 chain with L38I, T78H
B32: Q4P (designed binder)
chain: B1 chain with Q4P, T78H
B33: L27W (designed binder)
chain: B1 chain with L27W, T78H
B34: L27A (designed binder)
chain: B1 chain with L27A, T78H
B35: E43R (designed binder)
chain: B1 chain with E43R, T78H
B36: E29W (designed binder)
chain: B1 chain with E29W, T78H
B37: E44K (designed binder)
chain: B1 chain with E44K, T78H
B38: A23P (designed binder)
chain: B1 chain with A23P, T78H
B39: I49K (designed binder)
chain: B1 chain with I49K, T78H
B40: F31D (designed binder)
chain: B1 chain with F31D, T78H
B41: A15L (designed binder)
chain: B1 chain with A15L, T78H
B42: A90P (designed binder)
chain: B1 chain with T78H, A90P
B43: D65V (designed binder)
chain: B1 chain with D65V, T78H
B44: K72M (designed binder)
chain: B1 chain with K72M, T78H
B45: L64H (designed binder)
chain: B1 chain with L64H, T78H
B46: A69Q (designed binder)
chain: B1 chain with A69Q, T78H
B47: S47V (designed binder)
chain: B1 chain with S47V, T78H
B48: V100S (designed binder)
chain: B1 chain with T78H, V100S
B49: I49F (designed binder)
chain: B1 chain with I49F, T78H
B50: E29G (designed binder)
chain: B1 chain with E29G, T78H
B51: E25D (designed binder)
chain: B1 chain with E25D, T78H
B52: S47H (designed binder)
chain: B1 chain with S47H, T78H
B53: E67Q (designed binder)
chain: B1 chain with E67Q, T78H
B54: R97Y (designed binder)
chain: B1 chain with T78H, R97Y
B55: L82A (designed binder)
chain: B1 chain with T78H, L82A
B56: E43G (designed binder)
chain: B1 chain with E43G, T78H
B57: E36H (designed binder)
chain: B1 chain with E36H, T78H
B58: L75N (designed binder)
chain: B1 chain with L75N, T78H
B59: V55G (designed binder)
chain: B1 chain with V55G, T78H

Target: T1, TNFR1 (Homo sapiens, UniProt P19438)
T1 chain: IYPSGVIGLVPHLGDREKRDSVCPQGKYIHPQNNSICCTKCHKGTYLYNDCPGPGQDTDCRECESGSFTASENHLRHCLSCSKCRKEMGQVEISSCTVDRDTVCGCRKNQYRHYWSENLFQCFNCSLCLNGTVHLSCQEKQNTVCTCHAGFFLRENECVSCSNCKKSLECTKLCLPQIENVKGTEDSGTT
Assay: yeast display SC50

Binder	apparent Kd (screen) [pM]
B1	869
B2	490
B3	1270
B4	2250
B5	956
B6	653
B7	490
B8	718
B9	490
B10	653
B11	653
B12	539
B13	446
B14	956
B15	490
B16	1270
B17	405
B18	653
B19	539
B20	956

Binder	apparent Kd (screen) [pM]
B21	2250
B22	490
B23	7780
B24	653
B25	446
B26	653
B27	653
B28	593
B29	172
B30	539
B31	405
B32	3300
B33	956
B34	593
B35	593
B36	653
B37	956
B38	718
B39	7780
B40	2250

Binder	apparent Kd (screen) [pM]
B41	368
B42	1400
B43	956
B44	490
B45	956
B46	653
B47	446
B48	490
B49	539
B50	490
B51	1270
B52	539
B53	11400
B54	490
B55	869
B56	790
B57	490
B58	593
B59	539
